Assay [1] deals with T1, Coxsackievirus A6 (CVA6) A-particle (Coxsackievirus A6 strain TW-2007-00141).
T1 chain 1: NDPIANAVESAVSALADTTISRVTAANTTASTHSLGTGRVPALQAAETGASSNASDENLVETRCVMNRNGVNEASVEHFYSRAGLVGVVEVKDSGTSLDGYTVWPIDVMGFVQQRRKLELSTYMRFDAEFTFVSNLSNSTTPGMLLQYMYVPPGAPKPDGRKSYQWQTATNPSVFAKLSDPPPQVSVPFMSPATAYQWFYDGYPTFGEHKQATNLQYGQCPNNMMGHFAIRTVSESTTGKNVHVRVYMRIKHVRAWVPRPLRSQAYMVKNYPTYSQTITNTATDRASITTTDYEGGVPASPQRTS
T1 chain 2: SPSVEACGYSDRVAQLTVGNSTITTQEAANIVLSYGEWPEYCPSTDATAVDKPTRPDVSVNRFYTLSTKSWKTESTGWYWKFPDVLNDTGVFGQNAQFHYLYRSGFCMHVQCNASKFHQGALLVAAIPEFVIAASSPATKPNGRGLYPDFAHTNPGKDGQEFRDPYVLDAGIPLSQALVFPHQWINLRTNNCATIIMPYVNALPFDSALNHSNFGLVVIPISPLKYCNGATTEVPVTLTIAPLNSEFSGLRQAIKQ
T1 chain 3: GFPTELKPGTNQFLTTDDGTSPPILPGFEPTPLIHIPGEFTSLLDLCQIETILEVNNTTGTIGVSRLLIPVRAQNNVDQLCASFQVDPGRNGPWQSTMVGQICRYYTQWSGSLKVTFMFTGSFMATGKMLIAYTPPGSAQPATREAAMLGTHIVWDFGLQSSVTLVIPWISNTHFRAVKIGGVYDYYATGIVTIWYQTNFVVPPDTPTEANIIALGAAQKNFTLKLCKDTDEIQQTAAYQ
Kind of assay: SPR. For orientation: In SPR one partner is held on a chip, and binding of the other changes the refractive index at the surface.

The target of assay [2] is T1, Coxsackievirus A6 (CVA6) A-particle. In words: SPR.
The target is the same in assay [3]. In words: SPR.
Assay [4] has as its target T2, Coxsackievirus A6 (CVA6) procapsid (Coxsackievirus A6 strain TW-2007-00141).
T2 chain 1: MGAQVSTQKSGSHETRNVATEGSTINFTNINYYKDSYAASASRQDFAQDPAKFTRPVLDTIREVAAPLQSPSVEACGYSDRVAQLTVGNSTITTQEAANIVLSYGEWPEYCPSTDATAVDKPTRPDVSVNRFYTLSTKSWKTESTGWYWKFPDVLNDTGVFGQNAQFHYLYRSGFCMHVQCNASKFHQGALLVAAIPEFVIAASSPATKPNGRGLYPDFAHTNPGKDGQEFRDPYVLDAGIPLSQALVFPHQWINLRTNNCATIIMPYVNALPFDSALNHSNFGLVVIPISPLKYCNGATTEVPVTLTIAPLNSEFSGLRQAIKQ
T2 chain 2: T1 chain 1
T2 chain 3: T1 chain 3
In words: ELISA. For orientation: In an ELISA, binding on a coated surface is turned into a signal by an enzyme label.

From paper PMC5593947 (2017) come the findings set out here.

B1: neutralizing monoclonal antibody 1D5 (antibody, V domains shown)
VH: EVQLVESGGGLVKPGGSLKLSCAASGFAFSTYDMSWVRQTPEKRLELVAHISSGGGYIYYPDTVKGRFTISRDNAKNTLYLQMSSLKSEDTAMYYCTRQKGLYYGFDYWGQGTTLTVSS
VL: DIVMTQSHKFMSTSVGDRVSITCKASQDVNTAVAWYQQRPGQSPKLLIYSASYRYTGVPDRFTGSGSGTDFTFTISSVQAEDLAVYYCQQHYTTPHTFGGGTKLEIK
B1: the affinity in assay [1], expressed as Kd, was 4.14 nM. Further, the koff in assay [2] amounted to 0.000634 s⁻¹. Besides, the Ka in assay [3] stood at 2.41e+08 M⁻¹. Further, the midpoint of the response in assay [4], the EC50, lay at 0.069 µg/mL.

In general, Kd refers to the concentration at which binding is half-saturated. A higher Kd goes with weaker binding. Usually koff stands for the rate constant with which the complex falls apart. In general, EC50 refers to the concentration that produces a half-maximal response. A low value points to an effect from little substance.
